Values quoted from earlier work, collected in US20120245089A1, “USE OF THE SPARC MICROENVIRONMENT SIGNATURE IN THE TREATMENT OF CANCER” (ABRAXIS BIOSCIENCE, LLC, priority 2009, published 2012).

How the values were obtained:
[1] = test system: HOSE (human ovarian surface epithelial) and ovarian cancer cells; settings: exogenous SPARC; concentration-dependent
neuroblastoma tumor = settings: purified SPARC; in vivo xenograft model

B1: SPARC: matrix-associated protein; exogenous or purified SPARC in cited studies (protein, UniProt P09486 18-303, looked up)
SPARC: APQQEALPDETEVVEETVAEVTEVSVGANPVQVEVGEFDDGAEETEEEVVAENPCQNHHCKHGKVCELDENNTPMCVCQDPTSCPAPIGEFEKVCSNDNKTFDSSCHFFATKCTLEGTKKGHKLHLDYIGPCKYIPPCLDSELTEFPLRMRDWLKNVLVTLYERDEDNNLLTEKQKLRVKKIHENEKRLEAGDHPVELLARDFEKNYNMYIFPVHWQFGQLDQHPIDGYLSHTELAPLRAPLIPMEHCTTRFFETCDLDNDKYIALDEWAGCFGIKQKDIDKDLVI
Proliferation of HOSE and ovarian cancer cells [1]: reduce the proliferation
Apoptosis in ovarian cancer cells (ovarian cancer cells): induces apoptosis
Angiogenesis and neuroblastoma tumor growth (neuroblastoma tumor): inhibit angio-gnesis and impair neuroblastoma tumor growth
